US20220242962A1 (APTEVO RESEARCH AND DEVELOPMENT, published 2022)
Like-named read-outs stand apart in the source and are kept apart here.

B1: FXX01102 (bispecific antibody)
chain: EVQLVQSGAEVKKPGASVKVSCKASGYTFTSYWMNWVRQAPGQGLEWMGNIYPSGGSTNYAQKFQGRVTMTVDTSTSTVYMELSSLRSEDTAVYYCASFSDGYYAYAMDYWGQGTLVTVSSGGGGSGGGGSGGGGSGGGGSEIVMTQSPATLSLSPGERATLSCRASQSVSSYLNWYQQKPGQAPRLLIYYASRRHTGIPARFSGSGSGTDFTLTISSLQPEDFAVYYCQQGYNLPYTFGQGTKVEIKEPKSSDKTHTCPPCPAPPAAAPSVFLFPPKPKDTLMISRTPEVTCVVVDVSHEDPEVKFNWYVDGVEVHNAKTKPREEQYNSTYRVVSVLTVLHQDWLNGKEYKCAVSNKALPAPIEKTISKAKGQPREPQVYTLPPSRDELTKNQVSLTCLVKGFYPSDIAVEWESNGQPENNYKTTPPVLDSDGSFFLYSKLTVDKSRWQQGNVFSCSVMHEALHNHYTQKSLSLSPGGGGSPSSYVLTQPPSVSVAPGKTARITCGGNNIGSKSVNWFQQKPGQAPVLVVYDDSGRPSGIPERFSGSTSGNTATLTISRVEAGDEADYYCQVWDSSSDHVVFGGGTKLTVLGGGGSGGGGSGGGGSGGGGSQVQLVESGGGVVQPGRSLRLSCAASGFTLSYYGMHWVRQAPGKGLEWVAAISHDGSDKYYADSVKGRFTISRDNSKNRLYLQMNSLRAEDTAVYYCSNDQFDPWGQGTLVTVSSR
notes: ADAPTIR anti-4-1BB (HL) x anti-OX40 with Q17K and T86R; PAA (del) Fc; also called FX01102
B2: FXX01115 (bispecific antibody)
chain: EVQLVQSGAEVKKPGASVKVSCKASGYTFTSYWMNWVRQAPGQGLEWMGNIYPSGGSTNYAQKFQGRVTMTVDTSTSTVYMELSSLRSEDTAVYYCASFSDGYYAYAMDYWGQGTLVTVSSGGGGSGGGGSGGGGSGGGGSEIVMTQSPATLSLSPGERATLSCRASQSVSSYLNWYQQKPGQAPRLLIYYASRRHTGIPARFSGSGSGTDFTLTISSLQPEDFAVYYCQQGYNLPYTFGQGTKVEIKEPKSSDKTHTCPPCPAPPAAAPSVFLFPPKPKDTLMISRTPEVTCVVVDVSHEDPEVKFNWYVDGVEVHNAKTKPREEQYNSTYRVVSVLTVLHQDWLNGKEYKCAVSNKALPAPIEKTISKAKGQPREPQVYTLPPSRDELTKNQVSLTCLVKGFYPSDIAVEWESNGQPENNYKTTPPVLDSDGSFFLYSKLTVDKSRWQQGNVFSCSVMHEALHNHYTQKSLSLSPGGGGSPSSYVLTQPPSVSVAPGQTARITCGGNNIGSKSVNWFQQKPGQAPVLVVYDDSGRPSGVPNRFSGSTSGNTATLTISRVEAGDEADYYCQVWDSSSDHVVFGGGTKLTVLGGGGSGGGGSGGGGSGGGGSQVQLVESGGGVVQPGRSLRLSCAASGFTLSYYGMHWVRQAPGKGLEWVAAISHDGSDKYYADSVKGRFTISRDNSKNRLYLQMNSLRAEDTAVYYCSNDQFDPWGQGTLVTVSSR
notes: ADAPTIR anti-4-1BB x anti-OX40, pI variant; PAA (del) Fc
B3: FXX01119 (bispecific antibody)
chain: EVQLVQSGAEVKKPGASVKVSCKASGYTFTSYWMNWVRQAPGQGLEWMGNIYPSGGSTNYAQKFQGRVTMTVDTSTSTVYMELSSLRSEDTAVYYCASFSDGYYAYAMDYWGQGTLVTVSSGGGGSGGGGSGGGGSGGGGSEIVMTQSPATLSLSPGERATLSCRASQSVSSYLNWYQQKPGQAPRLLIYYASRRHTGIPARFSGSGSGTDFTLTISSLQPEDFAVYYCQQGYNLPYTFGQGTKVEIKEPKSSDKTHTCPPCPAPPAAAPSVFLFPPKPKDTLMISRTPEVTCVVVDVSHEDPEVKFNWYVDGVEVHNAKTKPREEQYNSTYRVVSVLTVLHQDWLNGKEYKCAVSNKALPAPIEKTISKAKGQPREPQVYTLPPSRDELTKNQVSLTCLVKGFYPSDIAVEWESNGQPENNYKTTPPVLDSDGSFFLYSKLTVDKSRWQQGNVFSCSVMHEALHNHYTQKSLSLSPGGGGSPSSYVLTQPPSVSVAPGKTARITCGGNNIGSKSVNWFQQKPGQAPVLVVYDDSGRPSGVPNRFSGSTSGNTATLTISRVEAGDEADYYCQVWDSSSDHVVFGGGTKLTVLGGGGSGGGGSGGGGSGGGGSQVQLVESGGGVVQPGRSLRLSCAASGFTLSYYGMHWVRQAPGKGLEWVAAISHDGSDKYYADSVKGRFTISRDNSKNRLYLQMNSLRAEDTAVYYCSNDQFDPWGQGTLVTVSSR
notes: as for B2

What was measured:
[1] = molecular target: T1, Full-length Human 4-1BB (human, UniProt Q07011 24-255); assay: cell-based or functional assay
T1 sequence (Q07011 24-255): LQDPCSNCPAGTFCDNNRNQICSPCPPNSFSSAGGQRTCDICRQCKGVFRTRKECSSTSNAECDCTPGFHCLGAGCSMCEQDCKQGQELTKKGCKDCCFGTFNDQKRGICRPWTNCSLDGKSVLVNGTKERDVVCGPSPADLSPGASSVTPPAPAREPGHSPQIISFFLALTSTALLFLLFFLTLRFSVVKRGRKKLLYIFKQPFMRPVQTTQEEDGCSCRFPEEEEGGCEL

[2] = molecular target: T2, Full-length Human OX40 (human, UniProt P43489 29-277); assay: cell-based or functional assay
T2 sequence: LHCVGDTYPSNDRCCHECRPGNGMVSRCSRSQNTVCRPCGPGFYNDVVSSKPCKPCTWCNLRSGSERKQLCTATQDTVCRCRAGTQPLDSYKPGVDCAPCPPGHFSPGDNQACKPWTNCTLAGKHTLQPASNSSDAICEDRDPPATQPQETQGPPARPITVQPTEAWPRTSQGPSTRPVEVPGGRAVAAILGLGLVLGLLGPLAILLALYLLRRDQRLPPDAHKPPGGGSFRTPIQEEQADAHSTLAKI

[3] = molecular target: T1, Full-length Human 4-1BB; assay: cell-based or functional assay; remark: listed apart in the source
[4] = molecular target: T2, Full-length Human OX40; assay: cell-based or functional assay; remark: listed apart in the source
[5] = molecular target: T3, Fc gamma receptor RIIA H167 (human, UniProt P12318 36-218); assay: SPR, construct immobilized, receptor injected at 2 uM
T3 construct: soluble SPR analyte
T3 sequence (looked up): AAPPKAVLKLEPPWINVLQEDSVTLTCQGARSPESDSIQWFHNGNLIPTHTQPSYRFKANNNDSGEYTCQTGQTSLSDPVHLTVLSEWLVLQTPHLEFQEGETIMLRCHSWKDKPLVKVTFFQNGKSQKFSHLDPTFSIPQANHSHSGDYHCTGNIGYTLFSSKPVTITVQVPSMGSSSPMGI
Protocol: (§1) Fcγ receptor binding to bispecific proteins was measured by Surface Plasmon Resonance on a Biacore 8K instrument at room temperature. Bispecific proteins with modified Fc regions to reduce binding to Fcγ receptors were directly immobilized on the surface of a CM5 sensor chip to a surface density of 4000 RU. A bispecific ADAPTIR™ protein with a wild type Fc was similarly immobilized to the surface as a positive control and used as a comparator to evaluate the reduction in binding resulting from changes incorporated into the Fc region amino acid sequence. Fcγ receptors (purchased from R&D Systems) were diluted to either 100 nM (FcγRI) or 2 μM (all other Fcγ receptors) in HBS-EP+ buffer before injecting over the surface of the prepared sensor chip at 30 μL/min for 60 seconds. Maximum RU values during association phase of each injection were used to compare the extent of binding of the modified Fc to wild type value and are reported in Table 17 below.

[6] = molecular target: T4, Fc gamma receptor RIIB/C (human, UniProt P31994 46-217); assay: as above
T4 construct: soluble SPR analyte
T4 sequence (looked up): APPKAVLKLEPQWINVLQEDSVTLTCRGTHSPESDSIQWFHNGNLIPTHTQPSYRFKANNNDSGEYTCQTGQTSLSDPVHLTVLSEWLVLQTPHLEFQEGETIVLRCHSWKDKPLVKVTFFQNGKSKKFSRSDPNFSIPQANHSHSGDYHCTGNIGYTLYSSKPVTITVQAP
Protocol: as §1

[7] = molecular target: T5, Human 4-1BB ECD-AFH (human); assay: SPR, construct captured, monomeric ECD as analyte
T5 construct: entry includes the tags; also called FOB003; HUMAN CD137 ECD-AVI-FLAG-HIS
T5 sequence (chain, as listed by the source limits assumed): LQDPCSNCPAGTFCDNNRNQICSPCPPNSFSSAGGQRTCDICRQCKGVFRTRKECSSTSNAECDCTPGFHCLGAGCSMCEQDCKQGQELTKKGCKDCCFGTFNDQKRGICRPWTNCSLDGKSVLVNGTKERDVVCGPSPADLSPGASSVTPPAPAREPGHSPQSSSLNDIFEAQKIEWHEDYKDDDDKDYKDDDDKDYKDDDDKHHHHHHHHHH
Protocol: (§2) Mouse anti-human IgG (GE, BR-1008-39) at 25 μg/ml in 10 mM sodium acetate pH 5.0 was immobilized at a density of ˜10,000 response units (RU) onto each flow cell of a CM5 research-grade sensor chip (GE) by standard amine coupling chemistry. Each binding protein at approximately 100 nM in HBS-EP+ with 0.2% BSA buffer was captured in a flow cell with the immobilized anti-human IgG at a flow rate of 10 μL/min for 20 seconds, leaving one flow cell surface unmodified as the reference. Using a single-cycle kinetics mode, five different concentrations of ECD were sequentially injected through each flow cell at 30 μL/min for 300 seconds followed by a 600 second dissociation period. Regeneration was achieved by injection of 3 M MgCl₂ at a flow rate of 30 μL/min for 30 seconds followed by HBS-EP+ with 0.2% BSA buffer stabilization for 1 min.
(§3) Sensorgrams obtained from kinetic SPR measurements were analyzed by the double subtraction method. The signal from the reference flow cell was subtracted from the analyte binding response obtained from flow cells with immobilized or captured ligands. Buffer reference responses were then averaged from multiple injections. The averaged buffer reference responses were then subtracted from analyte binding responses, and the final double-referenced data were analyzed with Biacore T200 Evaluation software (2.0, GE), globally fitting data to derive kinetic parameters. All sensorgrams were fitted using a simple one-to-one binding model.
(§4) Protein was produced by transient expression, purified by ProA chromatography and prep SEC.

[8] = molecular target: T6, Human OX40 ECD-AFH (human); assay: SPR, construct captured, monomeric ECD as analyte
T6 construct: ECD'; entry includes the C-terminal tags; also called OXF003; Human OX40 ECD-avi-flag-his
T6 chain: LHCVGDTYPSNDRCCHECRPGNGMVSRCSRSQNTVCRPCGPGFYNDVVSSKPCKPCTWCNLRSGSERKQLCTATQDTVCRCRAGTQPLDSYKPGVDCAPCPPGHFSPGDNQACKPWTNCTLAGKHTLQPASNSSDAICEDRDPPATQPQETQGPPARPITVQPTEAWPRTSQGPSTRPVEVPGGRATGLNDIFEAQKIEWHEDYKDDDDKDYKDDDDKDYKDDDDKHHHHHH
Protocol: as §2, §3, §4

[9] = molecular target: T7, Full-length Cyno OX40 (cynomolgus monkey, UniProt P43489 29-277 (human entry)); assay: flow cytometry on CHOK1SV cells transfected with cynomolgus OX40, goat anti-human Fc secondary antibody, MFI (Mean)
T7 construct: on CHO-K1SV cells; also called OXF004; cynomolgus OX40
T7 chain: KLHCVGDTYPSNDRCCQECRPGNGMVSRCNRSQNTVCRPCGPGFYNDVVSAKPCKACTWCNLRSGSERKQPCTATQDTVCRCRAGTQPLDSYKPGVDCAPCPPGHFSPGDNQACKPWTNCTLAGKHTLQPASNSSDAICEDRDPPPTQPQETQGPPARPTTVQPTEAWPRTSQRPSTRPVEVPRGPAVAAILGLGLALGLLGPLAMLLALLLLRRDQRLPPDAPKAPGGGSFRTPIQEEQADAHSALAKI
Protocol: Serial dilutions of ADAPTIR™ constructs were incubated with transfected target cells and subsequently labelled with a fluorescently-conjugated goat-a-human Fc secondary antibody. […] (See Example 25.)

4-1BB Reporter Assay EC50 [1] [nM]	4-1BB Reporter Assay Max induction [1]	OX40 Reporter Assay EC50 [2] [nM]	OX40 Reporter Assay Max induction [2]	4-1BB Reporter Assay EC50 [3] [nM]	4-1BB Reporter Assay Max induction [3]	OX40 Reporter Assay EC50 [4] [nM]	OX40 Reporter Assay Max induction [4]	Max RU value during association [5] [RU]	Max RU value during association [6] [RU]	Kd [7] [nM]	koff [7] [s⁻¹]	kon [7] [M⁻¹ s⁻¹]	Kd [8] [nM]	koff [8] [s⁻¹]	kon [8] [M⁻¹ s⁻¹]	EC50 (read off the curve) [9] [nM]	Binder
0.021	1.4e+06	0.016	5.78e+06	0.014	6.94e+06	0.01	2.05e+06	13	19	15	0.0043	290000	0.4	0.0003	710000	1 to 2	B1
0.018	1.36e+06	0.019	6.29e+06					12	19							1 to 2	B2
0.011	1.37e+06	0.012	6.07e+06					14	22							1 to 2	B3
